From paper PMC10371797

B1: ZC3H11A(wt)-HA [human] / PABPN1-Flag [not stated] (parent)
chain 1: MPNQGEDCYFFFYSTCTKGDSCPFRHCEAAIGNETVCTLWQEGRCFRQVCRFRHMEIDKKRSEIPCYWENQPTGCQKLNCAFHHNRGRYVDGLFLPPSKTVLPTVPESPEEEVKASQLSVQQNKLSVQSNPSPQLRSVMKVESSENVPSPTHPPVVINAADDDEDDDDQFSEEGDETKTPTLQPTPEVHNGLRVTSVRKPAVNIKQGECLNFGIKTLEEIKSKKMKEKSKKQGEGSSGVSSLLLHPEPVPGPEKENVRTVVRTVTLSTKQGEEPLVRLSLTERLGKRKFSAGGDSDPPLKRSLAQRLGKKVEAPETNIDKTPKKAQVSKSLKERLGMSADPDNEDATDKVNKVGEIHVKTLEEILLERASQKRGELQTKLKTEGPSKTDDSTSGARSSSTIRIKTFSEVLAEKKHRQQEAERQKSKKDTTCIKLKIDSEIKKTVVLPPIVASRGQSEEPAGKTKSMQEVHIKTLEEIKLEKALRVQQSSESSTSSPSQHEATPGARRLLRITKRTGMKEEKNLQEGNEVDSQSSIRTEAKEASGETTGVDITKIQVKRCETMREKHMQKQQEREKSVLTPLRGDVASCNTQVAEKPVLTAVPGITRHLTKRLPTKSSQKVEVETSGIGDSLLNVKCAAQTLEKRGKAKPKVNVKPSVVKVVSSPKLAPKRKAVEMHAAVIAAVKPLSSSSVLQEPPAKKAAVAVVPLVSEDKSVTVPEAENPRDSLVLPPTQSSSDSSPPEVSGPSSSQMSMKTRRLSSASTGKPPLSVEDDFEKLIWEISGGKLEAEIDLDPGKDEDDLLLELSEMIDS
chain 2: MAAAAAAAAAAGAAGGRGSGPGRRRHLVPGAGGEAGEGAPGGAGDYGNGLESEELEPEELLLEPEPEPEPEEEPPRPRAPPGAPGPGPGSGAPGSQEEEEEPGLVEGDPGDGAIEDPELEAIKARVREMEEEAEKLKELQNEVEKQMNMSPPPGNAGPVIMSIEEKMEADARSIYVGNVDYGATAEELEAHFHGCGSVNRVTILCDKFSGHPKGFAYIEFSDKESVRTSLALDESLFRGRQIKVIPKRTNRPGISTTDRGFPRARYRARTTNYNSSRSRFYSGFNSRPRGRVYRGRARATSWYSPY

Variants of: B1
Assay: co-IP (PABPN1-Flag bait), Western blot quantification
Conditions: with PABPN1-Flag; three individual experiments; read off a plot

ratio to parent	Variant
0.24	chain 1 C8A
0.57	chain 1 C37A
0.17	chain 1 C66A
